Substitutions are numbered along the chain they refer to. One block for each binder: values may come before it.
Key:
[1] = target: T1, human ACVR1 extracellular domain expressed with a C-terminal myc-myc-hexahistidine tag (human); assay: SPR (Biacore), mAb captured, 25 C
T1 construct: also called hACVR1-MMH
T1 chain: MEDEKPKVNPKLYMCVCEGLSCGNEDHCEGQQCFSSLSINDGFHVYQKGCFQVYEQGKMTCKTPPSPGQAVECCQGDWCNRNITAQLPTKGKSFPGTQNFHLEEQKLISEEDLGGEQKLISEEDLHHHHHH
Protocol: (§1) Equilibrium dissociation constants (KD) for ACVR1 binding to purified anti-ACVR1 monoclonal antibodies were determined using a real-time surface plasmon resonance biosensor (SPR-Biacore), Biacore 4000. All binding studies were performed in 10 mM HEPES, 150 mM NaCl, 3 mM EDTA, and 0.05% v/v surfactant Tween-20, pH 7.4 (HBS-ET) running buffer at 25° C. and 37° C. The Biacore CM5 sensor surface was first derivatized by amine coupling with a monoclonal mouse anti-human Fc antibody (GE, #BR-1008-39 or REGN2567) to capture anti-ACVR1 monoclonal antibodies. […] ACVR1 reagents were then injected over anti-human Fc captured anti-ACVR1 monoclonal antibody surface for 2.5-3 minutes at a flow rate of 30 μL/minute, while the dissociation of monoclonal antibody bound ACVR1 reagent was monitored for 10-15 minutes in HBS-ET running buffer. Kinetic association rate constant (kₐ) and dissociation rate constant (kd) were determined by fitting the real-time sensorgrams to a 1:1 binding model using Scrubber 2.0c curve-fitting software. Binding dissociation equilibrium constants (KD) and dissociative half-lives (t½) were calculated from the kinetic rate constants as: […]

[2] = target: T2, human ACVR1 extracellular domain expressed with a C-terminal mouse IgG2a Fc tag (human); assay: SPR (Biacore), mAb captured, 25 C
T2 construct: also called hACVR1-mFc
T2 chain: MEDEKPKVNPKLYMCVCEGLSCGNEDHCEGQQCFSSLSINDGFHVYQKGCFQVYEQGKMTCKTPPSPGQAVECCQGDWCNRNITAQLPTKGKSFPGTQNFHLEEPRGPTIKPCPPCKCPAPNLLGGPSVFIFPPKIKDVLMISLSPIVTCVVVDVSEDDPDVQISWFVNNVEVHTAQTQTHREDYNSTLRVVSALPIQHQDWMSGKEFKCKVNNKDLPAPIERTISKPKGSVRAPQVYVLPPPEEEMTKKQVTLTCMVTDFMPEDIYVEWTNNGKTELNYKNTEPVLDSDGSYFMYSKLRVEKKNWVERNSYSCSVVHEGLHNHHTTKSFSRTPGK
Protocol: as §1

[3] = target: T3, mouse ACVR1 extracellular domain expressed with a C-terminal myc-myc-hexahistidine tag (mouse); assay: SPR (Biacore), mAb captured, 25 C
T3 construct: also called mACVR1-MMH; mACVR1-mmh
T3 chain: T1 chain with M1V, P10Q
Protocol: as §1

[4] = target: T1, human ACVR1 extracellular domain …; assay: SPR (Biacore), mAb captured, 37 C
Protocol: as §1

[5] = target: T2, human ACVR1 extracellular domain …; assay: SPR (Biacore), mAb captured, 37 C
Protocol: as §1

[6] = target: T3, mouse ACVR1 extracellular domain …; assay: SPR (Biacore), mAb captured, 37 C
Protocol: as §1

[7] = target: T4, full length human ACVR1 (R206H) on HEK293/BRE-luc/hACVR1-R206H-clone H2 cells (human, UniProt Q04771 21-509); assay: cell-based or functional assay
T4 sequence: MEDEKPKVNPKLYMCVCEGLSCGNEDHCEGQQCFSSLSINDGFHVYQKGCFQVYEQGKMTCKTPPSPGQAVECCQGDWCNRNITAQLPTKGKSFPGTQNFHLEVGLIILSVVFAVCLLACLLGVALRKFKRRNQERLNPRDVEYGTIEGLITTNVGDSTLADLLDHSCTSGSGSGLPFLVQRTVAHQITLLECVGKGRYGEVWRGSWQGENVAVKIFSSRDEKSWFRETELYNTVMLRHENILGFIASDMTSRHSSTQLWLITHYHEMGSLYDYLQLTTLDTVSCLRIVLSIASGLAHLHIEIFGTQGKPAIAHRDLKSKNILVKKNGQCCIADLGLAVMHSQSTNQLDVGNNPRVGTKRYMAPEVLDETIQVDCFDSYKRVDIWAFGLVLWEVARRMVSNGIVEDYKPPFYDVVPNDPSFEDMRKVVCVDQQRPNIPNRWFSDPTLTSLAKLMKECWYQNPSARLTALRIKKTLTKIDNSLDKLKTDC

[8] = target: T4, full length human ACVR1 (R206H) on …; assay: flow cytometry, 70 nM antibody, HEK293/hACVR1-R206H cells
Protocol: Cells were fixed using BD CytoFix™ (Becton Dickinson, #554655) and analyzed on either Hypercyt® or IQue® Flow Cytometers (Intellicyt®). Unstained and secondary antibody alone controls were also tested for all cell lines. The results were analyzed using ForeCyt® (IntelliCyt®) software to determine the geometric means of fluorescence for viable cells and binding ratios were calculated by normalizing the geometric mean value of the test condition by the geometric mean value of the corresponding unstained cells.

900 nM or 100 nM Ag Bound (RU) [1]: 47 RU
Kd [1]: 8.43 nM
koff [1]: 0.000521 s⁻¹
kon [1]: 61800 M⁻¹ s⁻¹
t½ [1]: 22 min
100 nM Ag Bound (RU) [2]: 157 RU
Kd [2]: 0.936 nM
koff [2]: 0.000121 s⁻¹
kon [2]: 129000 M⁻¹ s⁻¹
t½ [2]: 95 min
900 nM or 100 nM Ag Bound (RU) [3]: -2 RU
900 nM or 100 nM Ag Bound (RU) [4]: 64 RU
Kd [4]: 21.4 nM
koff [4]: 0.00326 s⁻¹
kon [4]: 153000 M⁻¹ s⁻¹
t½ [4]: 3.5 min
100 nM Ag Bound (RU) [5]: 201 RU
Kd [5]: 1.58 nM
koff [5]: 0.000495 s⁻¹
kon [5]: 314000 M⁻¹ s⁻¹
t½ [5]: 23 min
900 nM or 100 nM Ag Bound (RU) [6]: 2 RU
% Inhibition, BRE-luc reporter, 2 nM hBMP7 [7]: 62%
IC50 [M], BRE-luc reporter, 2 nM hBMP7 [7]: 1.4e-10 M
MFI - Normalized to Unstained Control [8]: 1660 fold
B1: mAb29257 (antibody, human IgG4 S228P, kappa, V domains shown)
VH: EVQLVESGGNLVQPGGSLRLSCAASGFTFSNYAMSWVRQAPGKGLEWVSGITGNGIKTYYSVSAKGRFTISRDNSKNTLFLQMNSLRAEDTAIYYCVKERGHSWFGDWFDPWGQGTLVTVSS
VL: DIVMTQTPLSSPVTLGQPASISCRSSQGLVNSDGNTYLSWLHQRPGQPPRLLIYEISNRFSGVPDRFSGSGAGTDFTLKISRVEAEDVGFYYCMQSTQFPLTFGGGTKVEIKR

900 nM or 100 nM Ag Bound (RU) [1]: -2 RU
100 nM Ag Bound (RU) [2]: -1 RU
900 nM or 100 nM Ag Bound (RU) [3]: -3 RU
900 nM or 100 nM Ag Bound (RU) [4]: 0 RU
100 nM Ag Bound (RU) [5]: 3 RU
900 nM or 100 nM Ag Bound (RU) [6]: 0 RU
MFI - Normalized to Unstained Control [8]: 3 fold
B2: mAb29256 (antibody, human IgG4 S228P, kappa, V domains shown)
VH: B1 VH with I56V, K57N, A64V, Q82E
VL: DIQMTQSPSSLSASVGDRVTITCRSSQSVISYLNWYQQKPGKAPKLLIFGASSLISGVPSRFSGSGSGTDFTLTIVSLQPEDFAVYFCQQNYLPPLTFGGGTKVEIKR
notes: also called mAb29256P

900 nM or 100 nM Ag Bound (RU) [1]: 35 RU
Kd [1]: 8.01 nM
koff [1]: 0.000207 s⁻¹
kon [1]: 25800 M⁻¹ s⁻¹
t½ [1]: 56 min
100 nM Ag Bound (RU) [2]: 145 RU
Kd [2]: 1.34 nM
koff [2]: 5.06e-05 s⁻¹
kon [2]: 38100 M⁻¹ s⁻¹
t½ [2]: 228 min
900 nM or 100 nM Ag Bound (RU) [3]: 1 RU
binding result [3]: no binding (tested: 900 nM or 100 nM)
900 nM or 100 nM Ag Bound (RU) [4]: 66 RU
Kd [4]: 32.2 nM
koff [4]: 0.00173 s⁻¹
kon [4]: 53900 M⁻¹ s⁻¹
t½ [4]: 7 min
100 nM Ag Bound (RU) [5]: 222 RU
Kd [5]: 3.65 nM
koff [5]: 0.000335 s⁻¹
kon [5]: 91700 M⁻¹ s⁻¹
t½ [5]: 34 min
900 nM or 100 nM Ag Bound (RU) [6]: 2 RU
% Inhibition, BRE-luc reporter, 2 nM hBMP7 [7]: 110%
IC50 [M], BRE-luc reporter, 2 nM hBMP7 [7]: 1.5e-09 M
MFI - Normalized to Unstained Control [8]: 1660 fold
B3: mAb27245 (antibody, human IgG4 S228P, kappa, V domains shown)
VH: QVQLQQWGAGLLKPSETLSLTCAVYNGSFSSYYWNWIRQPPGKGLEWLGEINHRGSTNYNPSLTSRVTISVDTSKNQFSLKLTSVTAADTAIYYCTAHTRGFLYWGQGTLVTVSS
VL: DIQMTQSPSSLSASVGDRVTITCQASQDINNYLNWYQQKPGKAPKLLIYDASNLVPGVPSRFSGTGSGTDFSFTISSLQPEDIATYYCQHYYDLPLTFGGGTTVAIRR

900 nM or 100 nM Ag Bound (RU) [1]: 34 RU
Kd [1]: 6.52 nM
koff [1]: 0.000123 s⁻¹
kon [1]: 18900 M⁻¹ s⁻¹
t½ [1]: 94 min
100 nM Ag Bound (RU) [2]: 135 RU
Kd [2]: 0.918 nM
koff [2]: 3.2e-05 s⁻¹
kon [2]: 34900 M⁻¹ s⁻¹
t½ [2]: 361 min
900 nM or 100 nM Ag Bound (RU) [3]: 1 RU
binding result [3]: no binding (tested: 900 nM or 100 nM)
900 nM or 100 nM Ag Bound (RU) [4]: 66 RU
Kd [4]: 19.7 nM
koff [4]: 0.000852 s⁻¹
kon [4]: 43200 M⁻¹ s⁻¹
t½ [4]: 14 min
100 nM Ag Bound (RU) [5]: 216 RU
Kd [5]: 2.44 nM
koff [5]: 0.000201 s⁻¹
kon [5]: 82200 M⁻¹ s⁻¹
t½ [5]: 57 min
900 nM or 100 nM Ag Bound (RU) [6]: 2 RU
% Inhibition, BRE-luc reporter, 2 nM hBMP7 [7]: 110%
IC50 [M], BRE-luc reporter, 2 nM hBMP7 [7]: 1.8e-09 M
MFI - Normalized to Unstained Control [8]: 1160 fold
B4: mAb27241 (antibody, human IgG4 S228P, kappa, V domains shown)
VH: B3 VH
VL: B3 VL with N31I, K39Q, A51V, D70H, Y92D

900 nM or 100 nM Ag Bound (RU) [1]: 57 RU
Kd [1]: 8.27 nM
koff [1]: 0.000937 s⁻¹
kon [1]: 113000 M⁻¹ s⁻¹
t½ [1]: 12 min
100 nM Ag Bound (RU) [2]: 188 RU
Kd [2]: 0.767 nM
koff [2]: 0.000161 s⁻¹
kon [2]: 210000 M⁻¹ s⁻¹
t½ [2]: 72 min
900 nM or 100 nM Ag Bound (RU) [3]: 2 RU
binding result [3]: no binding (tested: 900 nM or 100 nM)
900 nM or 100 nM Ag Bound (RU) [4]: 68 RU
Kd [4]: 25 nM
koff [4]: 0.00456 s⁻¹
kon [4]: 182000 M⁻¹ s⁻¹
t½ [4]: 2.5 min
100 nM Ag Bound (RU) [5]: 212 RU
Kd [5]: 1.53 nM
koff [5]: 0.000521 s⁻¹
kon [5]: 340000 M⁻¹ s⁻¹
t½ [5]: 22 min
900 nM or 100 nM Ag Bound (RU) [6]: 2 RU
% Inhibition, BRE-luc reporter, 2 nM hBMP7 [7]: 70%
IC50 [M], BRE-luc reporter, 2 nM hBMP7 [7]: 7.3e-10 M
MFI - Normalized to Unstained Control [8]: 1900 fold
B5: mAb29226 (antibody, human IgG4 S228P, kappa, V domains shown)
VH: EVQLVESGGGLVQPGRSLRLSCAASGFTFDDYGMHWVRQAPGKGLEWVSVISWNSATIDYADSVKGRFTISRDNAKNSLFLQMNSLRPEDTALYYCAKKNSLGWFFDYWGQGTLVTVSS
VL: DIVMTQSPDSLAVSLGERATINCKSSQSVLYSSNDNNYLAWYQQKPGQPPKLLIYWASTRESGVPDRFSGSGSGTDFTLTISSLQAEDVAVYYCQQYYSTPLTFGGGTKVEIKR

900 nM or 100 nM Ag Bound (RU) [1]: 37 RU
Kd [1]: 21 nM
koff [1]: 0.00147 s⁻¹
kon [1]: 69900 M⁻¹ s⁻¹
t½ [1]: 8 min
100 nM Ag Bound (RU) [2]: 142 RU
Kd [2]: 1.9 nM
koff [2]: 0.000201 s⁻¹
kon [2]: 106000 M⁻¹ s⁻¹
t½ [2]: 57 min
900 nM or 100 nM Ag Bound (RU) [3]: 0 RU
binding result [3]: no binding (tested: 900 nM or 100 nM)
900 nM or 100 nM Ag Bound (RU) [4]: 52 RU
Kd [4]: 44.4 nM
koff [4]: 0.00528 s⁻¹
kon [4]: 119000 M⁻¹ s⁻¹
t½ [4]: 2.2 min
100 nM Ag Bound (RU) [5]: 185 RU
Kd [5]: 3.18 nM
koff [5]: 0.000742 s⁻¹
kon [5]: 233000 M⁻¹ s⁻¹
t½ [5]: 16 min
900 nM or 100 nM Ag Bound (RU) [6]: 2 RU
% Inhibition, BRE-luc reporter, 2 nM hBMP7 [7]: 107%
IC50 [M], BRE-luc reporter, 2 nM hBMP7 [7]: 7.6e-10 M
MFI - Normalized to Unstained Control [8]: 1560 fold
B6: mAb27405 (antibody, human IgG4 S228P, kappa, V domains shown)
VH: QVQLVESGGGLVKPGGSLRLSCAASGFTFSDYYMSWIRQAPGKGLEWVSYISRTGSTKYYADSVKGRFTISRDNAKNSLNLQMSSLRAEDTAVYFCAREPLQHWGQGTLVTVSS
VL: KIVLTQTPLSSPVTLGQPASISCRSSQSLVHSDGDTYLSWLHQRPGQPPRLLIYTISNRLSGVPDRFSGSGAGTDFTLKISRVEAEDVGVYYCMQGTQFPALTFGGGTKVEIKR

Source: patent US20210253716A1 (Regeneron, published 2021)
